Values belong to the binder of their own block, whether it stands above or below them. Positions of bridges follow the written chain, without caps; N, C: chain ends. Non-standard residues stand in square brackets, D forms with d. No end group written: not given here. AEEA = NCCOCCOCC(=O)O
Columns and labels:
[1] = molecular target: binding target for TKPPR on HAEC (human aortic endothelial cells); assay: competition of 2% D47 bubble binding to HAEC; D55 50 µM
[2] = molecular target: binding target for TKPPR on HAEC (human aortic endothelial cells); assay: competition of 2% D47 bubble binding to HAEC; D55 100 µM
[3] = molecular target: binding target for TKPPR on HAEC (human aortic endothelial cells); assay: competition of 2% D47 bubble binding to HAEC; D55 200 µM
[4] = molecular target: binding target for TKPPR on HAEC (human aortic endothelial cells); assay: fluorescent beads on confluent HAEC, static 30 min, image analysis
[5] = molecular target: binding target for TKPPR on HAEC (human aortic endothelial cells); assay: beads perfused over HAEC in a parallel plate flow cell, 37 C
[6] = molecular target: VEGF receptors on HUVECs; assay: competition with 125I-VEGF for binding to HUVECs
[7] = molecular target: binding target for TKPPR on HAEC (human aortic endothelial cells); assay: competition of 1% D47 bubble binding to HAEC; TKPR 25 µM
[8] = molecular target: binding target for TKPPR on HAEC (human aortic endothelial cells); assay: competition of 1% D47 bubble binding to HAEC; TKPR 100 µM
[9] = molecular target: binding target for TKPPR on HAEC (human aortic endothelial cells); assay: competition of 1% D47 bubble binding to HAEC; TKPR 50 µM
[10] = molecular target: binding target for TKPPR on HAEC (human aortic endothelial cells); assay: competition of 1% D47 bubble binding to HAEC; TKPR 10 µM
[11] = molecular target: binding target for TKPPR on HAEC (human aortic endothelial cells); assay: competition of 1% D47 bubble binding to HAEC; TKPR 5 µM
[12] = molecular target: binding target for TKPPR on HAEC (human aortic endothelial cells); assay: competition of 1% D47 bubble binding to HAEC; TKPPR 2.5 µM
[13] = molecular target: binding target for TKPPR on HAEC (human aortic endothelial cells); assay: competition of 10% D47 bubble binding to HAEC; free TKPPR 50 µM
[14] = molecular target: binding target for TKPPR on HAEC (human aortic endothelial cells); assay: competition of TKPPR-bead binding to HAEC; free TKPPR 10 µM
[15] = molecular target: binding target for TKPPR on HAEC (human aortic endothelial cells); assay: competition of 5% composition bubble binding to HAEC; free TKPPR 100 µM
[16] = molecular target: binding target for TKPPR on HAEC (human aortic endothelial cells); assay: competition of 10% D47 bubble binding to HAEC; free TKPPR 10 µM
[17] = molecular target: binding target for TKPPR on HAEC (human aortic endothelial cells); assay: competition of TKPPR-bead binding to HAEC; free TKPPR 25 µM
[18] = molecular target: binding target for TKPPR on HAEC (human aortic endothelial cells); assay: competition of 1% D47 bubble binding to HAEC; TKPPR 50 µM
[19] = molecular target: binding target for TKPPR on HAEC (human aortic endothelial cells); assay: competition of 1% composition bubble binding to HAEC; free TKPPR 10 µM
[20] = molecular target: binding target for TKPPR on HAEC (human aortic endothelial cells); assay: competition of 1% composition bubble binding to HAEC; free TKPPR 50 µM
[21] = molecular target: binding target for TKPPR on HAEC (human aortic endothelial cells); assay: competition of 1% composition bubble binding to HAEC; free TKPPR 25 µM
[22] = molecular target: binding target for TKPPR on HAEC (human aortic endothelial cells); assay: competition of 5% D47 bubble binding to HAEC; free TKPPR 10 µM
[23] = molecular target: binding target for TKPPR on HAEC (human aortic endothelial cells); assay: competition of 1% D56 bubble binding to HAEC; TKPPR 2.5 µM
[24] = molecular target: binding target for TKPPR on HAEC (human aortic endothelial cells); assay: competition of 10% D47 bubble binding to HAEC; free TKPPR 200 µM
[25] = molecular target: binding target for TKPPR on HAEC (human aortic endothelial cells); assay: competition of 1% D47 bubble binding to HAEC; free TKPPR 10 µM
[26] = molecular target: binding target for TKPPR on HAEC (human aortic endothelial cells); assay: competition of 1% D47 bubble binding to HAEC; TKPPR 5 µM
[27] = molecular target: binding target for TKPPR on HAEC (human aortic endothelial cells); assay: competition of 1% D47 bubble binding to HAEC; TKPPR 25 µM
[28] = molecular target: binding target for TKPPR on HAEC (human aortic endothelial cells); assay: competition of 1% D47 bubble binding to HAEC; TKPPR 10 µM
[29] = molecular target: binding target for TKPPR on HAEC (human aortic endothelial cells); assay: competition of 1% D47 bubble binding to HAEC; free TKPPR 200 µM
[30] = molecular target: binding target for TKPPR on HAEC (human aortic endothelial cells); assay: competition of 5% composition bubble binding to HAEC
[31] = molecular target: binding target for TKPPR on HAEC (human aortic endothelial cells); assay: competition of 2% D47 bubble binding to HAEC; TKPPR 25 µM
[32] = molecular target: binding target for TKPPR on HAEC (human aortic endothelial cells); assay: competition of 1% D56 bubble binding to HAEC; TKPPR 10 µM
[33] = molecular target: binding target for TKPPR on HAEC (human aortic endothelial cells); assay: competition of 1% D56 bubble binding to HAEC; TKPPR 50 µM
[34] = molecular target: binding target for TKPPR on HAEC (human aortic endothelial cells); assay: competition of 1% D47 bubble binding to HAEC; free TKPPR 50 µM
[35] = molecular target: binding target for TKPPR on RAEC (rabbit aortic endothelial cells); assay: competition of 5% composition bubble binding to RAEC; free TKPPR 100 µM
[36] = molecular target: binding target for TKPPR on HAEC (human aortic endothelial cells); assay: competition of 5% D47 bubble binding to HAEC; free TKPPR 100 µM
[37] = molecular target: binding target for TKPPR on HAEC (human aortic endothelial cells); assay: competition of TKPPR-bead binding to HAEC; free TKPPR 50 µM
[38] = molecular target: binding target for TKPPR on HAEC (human aortic endothelial cells); assay: competition of 1% D56 bubble binding to HAEC; TKPPR 25 µM
[39] = molecular target: binding target for TKPPR on HAEC (human aortic endothelial cells); assay: competition of 1% D47 bubble binding to HAEC; TKPPR 100 µM
[40] = molecular target: binding target for TKPPR on HAEC (human aortic endothelial cells); assay: competition of 1% D47 bubble binding to HAEC; free TKPPR 100 µM
[41] = molecular target: binding target for TKPPR on HAEC (human aortic endothelial cells); assay: competition of TKPPR-bead binding to HAEC; free TKPPR 100 µM
[42] = molecular target: binding target for TKPPR on HAEC (human aortic endothelial cells); assay: competition of 1% composition bubble binding to HAEC; free TKPPR 5 µM
[43] = molecular target: binding target for TKPPR on HAEC (human aortic endothelial cells); assay: competition of 5% D47 bubble binding to HAEC; free TKPPR 200 µM
[44] = molecular target: binding target for TKPPR on HAEC (human aortic endothelial cells); assay: competition of TKPPR-bead binding to HAEC; free TKPPR 200 µM
[45] = molecular target: binding target for TKPPR on HAEC (human aortic endothelial cells); assay: competition of 5% D47 bubble binding to HAEC; free TKPPR 50 µM
[46] = molecular target: binding target for TKPPR on HAEC (human aortic endothelial cells); assay: competition of TKPPR-bead binding to HAEC; free TKPPR 500 µM
[47] = molecular target: binding target for TKPPR on HAEC (human aortic endothelial cells); assay: competition of 1% composition bubble binding to HAEC; free TKPPR 100 µM
[48] = molecular target: binding target for TKPPR on HAEC (human aortic endothelial cells); assay: competition of 1% composition bubble binding to HAEC
[49] = molecular target: binding target for TKPPR on HAEC (human aortic endothelial cells); assay: competition of 10% D47 bubble binding to HAEC; free TKPPR 100 µM
[50] = molecular target: binding target for TKPPR on HAEC (human aortic endothelial cells); assay: competition of 2% D47 bubble binding to HAEC; D54 200 µM
[51] = molecular target: binding target for TKPPR on HAEC (human aortic endothelial cells); assay: competition of 2% D47 bubble binding to HAEC; D54 100 µM
[52] = molecular target: binding target for TKPPR on HAEC (human aortic endothelial cells); assay: competition of 2% D47 bubble binding to HAEC; D54 50 µM

Binder: CTKPPRC (disulfide 1-7 (inferred)) [cyclic disulfide CTKPPRC (D55)]
Bubbles Bound % in presence of competitor [1]: 97 % of control
Bubbles Bound % in presence of competitor [2]: 71 % of control
Bubbles Bound % in presence of competitor [3]: 99 % of control

B2: TKPPR tetramer D41, OG-(TKPPR)4 (peptide)
peptide: [AEEA]TKPPR
modifications: also: tetramer of four TKPPR on a branched non-peptide scaffold, one Oregon Green label on scaffold
IC50 [6]: 10 µM

Binder: TKPR [Tuftsin (TKPR)]
Bubbles Bound in presence of competitor [7]: 1170 bubbles
Bubbles Bound in presence of competitor [8]: 556 bubbles
Bubbles Bound in presence of competitor [9]: 904 bubbles
Bubbles Bound in presence of competitor [10]: 976 bubbles
Bubbles Bound in presence of competitor [11]: 1150 bubbles

Binder: TKPPR [TKPPR (L-threonyl-L-lysyl-L-prolyl-L-prolyl-L-arginine)]
Bubbles Bound- D47 Formulation, in presence of competitor [12]: 1240 bubbles
Bubbles Bound- 10%, in presence of competitor [13]: 857 bubbles
% Inhibition (average, n = 11) [14]: 30.8%
HAEC bubbles bound in presence of competitor [15]: 58 bubbles
Bubbles Bound- 10%, in presence of competitor [16]: 1090 bubbles
% Inhibition (average, n = 11) [17]: 50.7%
Bubbles Bound in presence of competitor [18]: 56 bubbles
Bubbles Bound- D47 Formulation, in presence of competitor [18]: 9 bubbles
Average % Inhibition [19]: 79.6%
Average % Inhibition [20]: 92.7%
Average % Inhibition [21]: 82%
Bubbles Bound- 5%, in presence of competitor [22]: 1340 bubbles
Bubbles Bound- D56 Formulation, in presence of competitor [23]: 888 bubbles
Bubbles Bound- 10%, in presence of competitor [24]: 66 bubbles
Bubbles Bound- 1%, in presence of competitor [25]: 10 bubbles
Bubbles Bound in presence of competitor [26]: 790 bubbles
Bubbles Bound in presence of competitor [27]: 106 bubbles
Bubbles Bound- D47 Formulation, in presence of competitor [27]: 75 bubbles
Bubbles Bound in presence of competitor [28]: 528 bubbles
Bubbles Bound- D47 Formulation, in presence of competitor [28]: 535 bubbles
Bubbles Bound- 1%, in presence of competitor [29]: 4 bubbles
% more bubbles bound with competitor [30]: 19%
IC50 [6]: 250 µM
Bubbles Bound % in presence of competitor [31]: 16 % of control
Bubbles Bound- D56 Formulation, in presence of competitor [32]: 833 bubbles
Bubbles Bound- D56 Formulation, in presence of competitor [33]: 462 bubbles
Bubbles Bound- 1%, in presence of competitor [34]: 5 bubbles
RAEC bubbles bound in presence of competitor [35]: 21 bubbles
Bubbles Bound- 5%, in presence of competitor [36]: 12 bubbles
% Inhibition (average, n = 11) [37]: 50.5%
Bubbles Bound- D56 Formulation, in presence of competitor [38]: 718 bubbles
Bubbles Bound in presence of competitor [39]: 17 bubbles
Bubbles Bound- 1%, in presence of competitor [40]: 4 bubbles
% Inhibition (average, n = 11) [41]: 62%
Average % Inhibition [42]: 45.7%
Bubbles Bound- 5%, in presence of competitor [43]: 13 bubbles
% Inhibition (average, n = 11) [44]: 72.2%
Bubbles Bound- 5%, in presence of competitor [45]: 440 bubbles
% Inhibition (average, n = 11) [46]: 70.6%
Average % Inhibition [47]: 93.7%
% inhibition of bubble binding [48]: 82.7%
Bubbles Bound- 10%, in presence of competitor [49]: 399 bubbles

The remaining lines, values ahead:

Integrated density of bound beads (arbitrary units) [4]: 230
Bound at 1.53 dynes/cm^2 [5]: 86 beads
B1: TKPPR-conjugated red fluorescent microspheres (peptide)
peptide: TKPPR
modifications: also: amino group coupled by EDAC to carboxylate-modified FluoSpheres, which amino group not given here

Integrated density of bound beads (arbitrary units) [4]: 28.6
Binder: GRGDSP (also: coupled by EDAC to carboxylate-modified FluoSpheres, site not given here) [GRGDSP-conjugated fluorescent microspheres]

Bubbles Bound % in presence of competitor [50]: 88 % of control
Bubbles Bound % in presence of competitor [51]: 78 % of control
Bubbles Bound % in presence of competitor [52]: 97 % of control
Binder: CTKPPRC [linear CTKPPRC (D54)]

— patent US20060153775A1
